Experiments:
Assay in all cases: SPR (Biacore), fusion protein captured on chip, human apical domain TfR injected, steady-state fit
ETV:GAA Fusion 1 = target: T1, ETV:GAA Fusion 1 (human, UniProt P0DOX5 223-449 = IgG part)
T1 construct: Heterodimer of the two chains; also called N-terminal monozyme GAA-Fc fusion protein
Method: (§1) To determine whether GAA-Fc fusion proteins with engineered TfR binding affects the ability of the modified Fc domain to interact with human TfR, the affinity of ETV:GAA fusion proteins (Example 1) for human TfR was assessed using a Biacore™ surface plasmon resonance assay. Biacore™ Series S CM5 sensor chips were immobilized with anti-human Fab (human Fab capture kit from GE Healthcare). Five (5) μg/mL of the GAA-Fc fusion proteins were captured for 1 minute on each flow cell and serial 3-fold dilutions of human apical domain TfR were injected at a flow rate of 30 μL/min. Each sample was analyzed with a 3-minute association and a 3-minute dissociation. After each injection, the chip was regenerated using 10 mM glycine-HCl (pH 2.1). Binding response was corrected by subtracting the RU from a flow cell capturing an irrelevant IgG at similar density. Steady-state affinities were obtained by fitting the response at equilibrium against the concentration using Biacore™ T200 Evaluation Software v3.1.

ETV:GAA Fusion 2 = target: T2, ETV:GAA Fusion 2 (human, UniProt P0DOX5 223-449 = IgG part)
T2 construct: Heterodimer of the two chains; also called N-terminal monozyme GAA-Fc fusion protein
Method: as §1

ETV:GAA Fusion 3 = target: T3, ETV:GAA Fusion 3 (human, UniProt P0DOX5 223-449 = IgG part)
T3 construct: Heterodimer of the two chains; also called C-terminal monozyme GAA-Fc fusion protein
Method: as §1

ETV:GAA Fusion 4 = target: T4, ETV:GAA Fusion 4 (human, UniProt P0DOX5 223-449 = IgG part)
T4 construct: Heterodimer of the two chains; also called C-terminal monozyme GAA-Fc fusion protein
Method: as §1

Kd (ETV:GAA Fusion 1): 0.251 µM | Kd (ETV:GAA Fusion 2): 0.26 µM | Kd (ETV:GAA Fusion 3): 0.282 µM | Kd (ETV:GAA Fusion 4): 0.271 µM
B1: human apical domain TfR (receptor)
chain: NSVIIVDKNGRLVYLVENPGGYVAYSKAATVTGKLVHANFGTKKDFEDLYTPVNGSIVIVRAGKITFAEKVANAESLNAIGVLIYMDQTKFPIVNAELSFFGHAHLGTGDPYTPGFPSFNHTQFPPSRSSGLPNIPVQTISRAAAEKLFGNMEGDCPSDWKTDSTCRMVTSESKNVKLTVS
notes: also called human TfR; huTfR

Reference: patent US20250250555A1 (DENALI THERAPEUTICS, published 2025)
